Experimental data published in the DeepSol protein solubility set.

experiment: soluble on expression in E. coli; label from the status in PepcDB or PDB records

Sequence	soluble on expression in E. coli
MGSFMTDIAVIINNRAKNAHRMEDYLSELRAHDIDYQLYKADPQQLEKNIQHCCSKYPLLLIGGGDGTVRSAAQWCSNTSVILGVLPLGTMNHFSKELNLPSTTEELIAAIVEKTTTTIDVAEVNGH	not soluble
VDNDKLKDGYVNFINILNLDDMYVKKMREWRNQDFVRQRMFNREIITEEEHARFIEHLKDNREKNYYVCFLGNKPFGVLYYEFFRKNNNLEFGYYLTEQEFINSGLGIVMEYSLLNHAFYDLKVNKVFCRTLSSNEKVVSLHMNFGFETEGILRQHVRINDGYEDITIQAINERAWAQNRPKIEKYLRVIVDVDKIGPITGRS	soluble
MSLRIESGVCYVINEFCALGNTYMPIDKLVKNCINVLNVKKEEVEKAIYECTLSQKIKVEIINGENCVFTMEYYYCEIGITRKIITLAYDSYKSLEIDVDQKIIQFENENKIKFAPSQVEAIEGAFSNGIEVITGGPGTGKTTIIRCITYIFEELNMKVFMAAPTGRAAKRMSESTGREAKTIHRMLELGYEDEVFFDNNNYSTLQCDVVIIDEASMIDVVLMNSLLKSIGMGTRVIIVGDVDQLPSVGPGNVLRDIIESKCVKVIRLNNIFRQAKESMITVNAHKINSGEMPLLNKKDKDFYFIREDNAEAITNTIISLVYKRLPLFNKSWKAARDIQVLAPMKKGIAGVANLNVSLQSIINPPHKSKDEIKFRDNIFRVGDKVMQIKNNYMLKEGHHHHHH	not soluble
MSLIAIYVRVSTEEQAIKGSSIDSQIEACIKKAGTKDVLKYADEGFSGELLERPALNRLREDASKGLISQVICYDPDRLSRKLMNQLIIDDELRKRNIPLIFVNGEYANSPEGQLFFAMRGAISEFEKAKIKERTSSGRLQKMKKGMIIKDSKLYGYKFVKEKRTLEILEEEAKIIRMIFNYFTDHKSPFFGRVNGIALHLTQMGVKTKKGAKVWHRQVVRQILMNSSYKGEHRQYKYDTEGSYVSKQAGNKSIIKIRPEEEQITVTIPAIVPAEQWDYAQELLGQSKREGHHHHHH	soluble
MSLSEAGHKFLAKLGKKRLRPGGKRATDWLIAEGGFSKEKRILEVACNRGTTAIELAQRFGCKITAVDMDAQALEVAKKSAGTAGVAHLISFERANAMKLPYQDASFDIVINEAMLTMQADQAKKKCVMEYLRVLKPGGLLLTHDVLLKEAKESIRQELSQAIHVNVGPLTQDGWEQVMIESGYCDVKALTGEMTLMKLSGMIYDEGLLGTLKICVNACKKENRKQFLTMYKMFAKNKQKLGFIAMASYKSSEGHHHHHH	soluble
KQKVINVKEVRLSPTIEEHDFNTKLRNARKFLEKGDKVKATIRFKGRAITHKEIGQRVLDRLSEACADIAVVETAPKMDGRNMFLVLAPKNDNK	soluble
TTILVVRRNGQTVMGGDGQVTFGSTVLKGNARKVRKLGEGKVLAGFAGSVADAMTLFDRFEAKLREWGGNLTKAAVELAKDWRTDRVLRRLEALLLVADKENIFIISGNGEVIQPDDDAAAIGSGGPYALAAAKALLRNTDLSAREIVEKAMTIAGEICIYTNQNIVIEEV	soluble
AAGVLKHRRRKEKAQRKLVGMQANLDRLSDLTAELGKQLKPLARQAEAARKAATIQSEVRDARLRIAGYQIHSLASSLKDAQSHHDSIAEKLEEVTEQLEEATGVQLEAEDALGKISPEAEKSQQLWFELSSLAERVSATQRIATDRAKNFSEVRYSGPDPDELAEKAARADAEYAEAEETVDILSERLESIQDNVAELEEQAQRADREHLAQVRAIADRREGIVRLLTLESQQREHIVAAEAELERLREAESDIAAQARSKDAEHKDCQTQAQEARSRIEPLSQSRDAALNESRAADSRLEQLREQQSDIDKSISRLESKIETLESHRMTRNAVKQWEKLQSFYGVDRYIIPQRGMEKAIAAALGPVAEALVGETTTAELQALDIESLARHIVITPGEDHDWRLATDLPHYASWLLDYVELAPEVSSTIVQILADVVLVDSYEHGREVVNHDPRLRAVCVDGTMWGHGWVAVGSAERSAVEIAAEIDQAEKDLEVARLQRVELAGTLNGAHQAADEARVRSAQAQAVCREQEIVVENFSRRVEAVSHEAEARKQELRRHALRVQEAQDRLNQLRQLWEETSDRLSRVEEDNSEEEPSTSERDKAAAALSHMRSMEVEARLSLRTAQDKAEHIRGRGDGLRRQAEYERQARARHDQAVARQRRKAEIASVVAQQCLVVAERVDDALARATQWKENAIAQRGVISARVSAAKDTVSALRTNANRLTEKSHAAELSLGQAQVRLEEAHEKIVEQLGIAISDLMRDYTPHEGFDIGAQRVRLKNAEKDLNALGKVNPLALEEFKALEERYEFLSTQLADVEQARRDLHGVINDVDTKILQ	not soluble
MKKLVLIGGGYGNMRVLHRLLPNQLPDDVSITLIDRNPYHCLKTEYYALAAGTISDHHIRVSFPEHPRLDVQYGDITSIDIVQKQVLFQDREPISYDDAIIGLGCEDKYHNVPGAPEFTYSIQTIDQSRETYQKLNNLSANATVAIVGAGLSGVELASELRESRDDLNIILFDRGNLILSSFPERLSKYVQKWFEEHGVRIINRANITKVEEGVVYNHDDPISADAIVWTAGIQPNKVVRDLDVEKDAQGRIVLTPHHNLPGDEHLYVVGDCASLPHAPSAQLAEAQAEQIVQILQKRWNGEALPESMPQFKLKGVLGSTRK	soluble
MSLTDINLKGGKLSIEQLNTIFETIPVEFDFIDENDIIRWSSANRHRLFKRTDADLGKHVLEVHPGHSQNHVKQVLHDMHSGDRDSISIMIKHHGQPVNIAFYALRDDQNKYLGCVEVTQDVSKQQTKGSFWRNIMQVLHKKEGHHHHHH	soluble
MASKASGGSTRNGRDSISKRLGVKRYDGQFVKAGNIIVRQRGTRIYPGKNVGMGSDYTLFALKDGYVYFETRRKKKFVSVLSPEEWEKVMAQKNGKVH	not soluble
MEHNQLIAMITEAVMEQIRPLPKINQIPVAISNRHVHLSQEDAQTLFGPNYSFKIKKDLSQPGQYACEERVTLVGPKGVIENVRILGPVRPQTQVELSVSDGIKLGITPPVRDSGDLANSAGITLVGPSGSLTLPEGVIAAARHIHMHSTDAARFGVKDRDRVSVTAPGPRGLVFRETLIRVSHNFTLEMHIDIDEANAAALRNQDYVELLLVNHLLP	not soluble
MGSSHHHHHHSSGLVPRGSHMRLCHPCPWEWTFFQGNCYFMSNSQRNWHDSITACKEVGAQLVVIKSAEEQNFLQLQSSRSNRFTWMGLSDLNQEGTWQWVDGSPLLPSFKQYWNRGEPNNVGEEDCAEFSGNGWNDDKCNLAKFWICKKSAASCSRDEEQFLSPAPATPNPPPA	soluble
MSIPINFNNLKYLLNDMRNKNRIIEAFPFNYNQRQYAVILTRYKPDEPRPDDYAQAKLEFFNLNSENSIFAYADFYEVHFKSATDFINFFKINVQAGAAKIREIFQSFSNLFADFIPTQTKKDLDIIYKKIVATRLEPNSPNTIYCYDVRRNGKDKAGKPNRRSVENSEKAKILRPELYEKFKADSNYSFFFSDNPSDEKTDAEIIREVTNRQ	not soluble
MSYYHHHHHHDYDIPTTENLTFQGAMEPTSSLNRGDRKKGSSLVTGSEVQSQSNGASCFITTDSEKSLVSRQASQVEQIELRTYVFLDSLQPQLAAYMGTVSRGFLPIPGDSCLWMEVSPGMAVHRVTDIALKASNVRLGQMIVERAFGSLALYHKDQSTVLHSGDVVLDAIGSEVRKRTKPSTSWTEVICAITPDHAVLINRQNRSGSMIQSGMSMFILETEPAGYVLKAANEAEKSANITIIDVKAVGAFGRLTLAGKEGDVEEAAAAAIRAIDQISNY	soluble
MGSDKIHHHHHHMLRGMYTASGAMQALQRQQEMLSNNLANARTPGFRADQASLRTFPEMMIQQSGVNEQSGVRSRGTVGKLATGVFMQAATPNFALGSITETGNATDLQISSLEGAALFTIRHADPATGEEETLYTTNGQFAVGQDGLLRTTENDLVLGDAGQPLNVVNEDFTVSADGAVTDGNGQAIGNLGLVVTNQPETLERTGNGLFRSPDALNGGAIKVDQGVLELGNVEVEQTMTEMNAGLRQFEANQKVIQAYDRTAEKAVSEIGRVR	not soluble
QRRQMEMQSVNLVHEALSNQRLELFAQRVMNLQSPESLMYFEILVRIRDAQGNYVSPAIFIPASERYNIAHWIDKQVINQALEWFEQRPDVVEKLGRCSINLSGQSMGNQEFIDFLFERLKNSTMPCEKICLEITETAAMGNLDQAIDFFTRAKSLGCMIALDDFGSGLSSFGYLKKLPVDIVKIDGLFVRDIDVNEMDRVMVRSINDLAKQLGKVTVAEFVENEQVMQHLIDLGVDYGQGYGIGHPKPLAELVENLSSL	not soluble
MSLSLYDSAHSLDGKSGWDTPVFSMKDSMDRNPMVTEAWEALCQSQVYFRGKPVGTIAAYDHASEEVLNYDQVFVRDFVPSALAFLMNGEPEIVKNFLLKTLHIQGQDKMIDKFKLGDGAMPASFKVLHNPIKKTDTIIADFGESAIGRVAPVDSGFWWIILLRAYTKSTGDHSLAERPECQKGMRLILSLCLSEGFDTFPTLLCADGCSMVDRRMGIYGYPIEIQALFFMALRSALSMLKHDSEGKEFMEKIVKRLHALSFHMRSYFWLDFQQLNDIYRYKTEEYSHTAVNKFNVIPDSIPDWIFDFMPLRGGYFVGNVSPARMDFRWFALGNCIAILSSLATPEQSMAIMDLIEARWEELVGEMPLKICYPAMESHEWGIVTGCDPKNTRWSYHNGGSWPVLLWLLTAASIKTGRPQIARRAIELAEARLLKDGWPEYYDGKSGRFIGKQARKSQTWSIAGYLVAKMMMDDPTHVGMISMEEEKHMKPPLRRSSSWT	soluble
MSLTQMEMARKGVVSDEMKKVAEYEGVDVEIVRQKLAEGRAVLPKNKLHRIERPMIVGEGFSVKVNANIGTSQGFSSLEEEKEKARVAIEYGADSLMVLSTWGDLREIRRAIVEMSPVPVGSVPIYDSAVRSYQMKKNVVDFSEKDFFDMVIAHAEDGIDFMTIHVGVTRRVLDRIKSSRRVLKIVSRGGAIIAGWMIKNNKENPFYEHFDELLDIAKDYDITLSLGDGMRPGAVVDASDAQQFEELFVMGELVERAREKGVQVMLEGPGHVPLNEVEMNVRLMKKIGKGAPIFLLGPLPTDRAMGYDHIACAIGGALAGYYGADFLCYVTPSEHISLPDVEDVREGVIASKIAAIVADVARGNKKAWELEKKMALARKNFDWETMFSLSLGKDVAKKKYEERPYPDKGCSMCGPFCAIKIAEEFSEGHHHHHH	soluble
MSLRDIAIGASLELSGPTQSIGTAYKKALELQVDSINEQGGVLGGRKLRLVVKDNQTKPAQNITNVNDLINNDHVVAVITGGCSACTVPVTSIVEKRKVPLISLASATAITDPVAERQYTFKISPNPAQDAEVLLADLKKKGVKSVGLLNVDNPYGQEGRAAVLAQAKKAGIEVTGTQQFGQEDKDMSVQAKRLVDDRPEAVVVWAVMPAAGIIAKNLRDAEFDGGVYLDAGAGAELFVKGAQGAAEGVHMVFPRVLAIGDVTSGGDSVRKQKQWVARYTDRYQDYSGFASFAADAALMLRDAIAKSGSTDGAELRDTIETIGFDGVSGPIRNSAKEHSGLQPESLGVLVVRDGDWHLANEGHHHHHH	soluble
AIAENSSKEDYKIQSFDLETQKLLKTALKDPGSVDLEKVSSVIVDQSLKDQVFSREAGRICYTIVQAEAKQTNGSVFRRNLLNRLQQEFKAREETRKRSTQEWVCLVSFICNIFDYLKVNNMPMVALVHPVYDCLFRLAQSDALKNEEEVDCLVLQLHRIGDQLEKMNVQLMDELFNLLRDGFLLQEDLSSMGRLLLLEILEFRAGGWKLSDTAQKYYYSEVTD	soluble
METDPDYSMVLLTENFPPYNMAINGKNFAQEDNIDGIAVDIVREMFKRAGIKYSLTLRFPWDRIYKLALEKPGYGVFVTARLAEREDKFKWVGPIGPDDWVLLAKGDSPITLGSLDEAKKYRIGAYKGDAIAEFLGKNGFEADLALRDQENAQKLVKGQIDLWASGDPAGRYLAKQEGVTGLKTVLRFNSDQLYLALNRETPDEVVQKLQAALDGMRKEGFVEDILNSYLLEHHHHHH	soluble
